In article PMC6755802 (The Journal of Biological Chemistry, 2019):

T1: Super-2/IL-2Rβ binary complex (human, UniProt P60568;P14784)
T1 construct: human IL-2Rβ ectodomain, amino acids 1-214; also called stabilized Super-2/IL-2Rβ binary complex; source: baculovirus expression system, purified (nickel chromatography, SEC)
T1 chain 1: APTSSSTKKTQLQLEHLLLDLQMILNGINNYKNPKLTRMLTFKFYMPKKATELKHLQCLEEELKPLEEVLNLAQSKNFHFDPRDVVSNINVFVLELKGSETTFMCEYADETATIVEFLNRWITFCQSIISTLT
T1 chain 2: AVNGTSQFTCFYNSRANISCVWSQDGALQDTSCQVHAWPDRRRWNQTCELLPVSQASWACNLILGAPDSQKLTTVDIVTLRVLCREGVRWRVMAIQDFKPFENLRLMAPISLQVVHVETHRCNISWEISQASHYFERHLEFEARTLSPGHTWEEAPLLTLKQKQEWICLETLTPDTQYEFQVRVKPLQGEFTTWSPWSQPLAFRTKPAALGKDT

B1: affinity-matured IL-2 binary complex stapler scFv, yeast-displayed (scFv, V domains shown)
VH: QVQLQQSGPGLVKPSQTLSLTCAISGDSVSSNSATWNWIRQSPSRGLEWLGRTYYRSKWYDDYAVSVKSRITINPDTSKNQFSLQLNSVTPEDTAVYYCARATYGTYDYWGQGTLVTVSS
VL: NFMLTQPHSASESPGKTVTISCTGSRGSIASNYVQWYQQRPGSAPTTVIYEDNQRPSGVPDRFSGSIDSSSNSASLTISGLKTEDEADYYCQSYDQNYHAVFGGGTQLTVL
notes: as the scFv of m6 with changes in the VH and VL CDR3 regions; also called amIL-2B stapler; amIL-2BC stapler; source: site-directed mutagenic library of IL-2B stapler
B2: affinity-matured IL-2 binary complex stapler scFv, recombinantly expressed (scFv, V domains shown)
VH: B1 VH
VL: B1 VL
notes: VH of amIL-2B stapler; as the VH of m8 with changes in CDR3; 15-amino acid (Gly4Ser)3 linker; VL of amIL-2B stapler; as the VL of m8 with changes in CDR3; Biotinylated for immobilisation in SPR; also called amIL-2B stapler; amIL-2BC stapler; source: baculovirus system (pAcGP67A), purified (nickel chromatography, SEC)

Tests used:
[1] = target: T2, IL-2, biotinylated (for staining of yeast) (Homo sapiens, UniProt P60568, biotin (site not stated)); assay: flow cytometry on cells; scFv displayed on yeast; 1 μM of the indicated biotinylated complex components in PBE buffer, 2 h at room temperature; detection with 50 nM SA-647; conditions: one partner purified
T2 construct: human IL-2, amino acids 1-133; also called interleukin-2; the cytokine; source: baculovirus expression system, purified (nickel chromatography, SEC)

[2] = target: T3, IL-2Rβ ectodomain, biotinylated (for staining of yeast) (Homo sapiens, UniProt P14784, biotin (site not stated)); assay: as above; conditions: one partner purified
T3 construct: human IL-2Rβ ectodomain, amino acids 1-214; also called the receptor; source: baculovirus expression system, purified (nickel chromatography, SEC)

[3] = target: T4, IL-2/IL-2Rβ binary complex (Homo sapiens, UniProt P60568;P14784); assay: as above; conditions: one partner purified
T4 construct: human IL-2, amino acids 1-133; human IL-2Rβ ectodomain, amino acids 1-214; also called IL-2 BC; IL-2 binary complex; source: baculovirus expression system, purified (nickel chromatography, SEC)

[4] = target: T1, Super-2/IL-2Rβ binary complex; assay: SPR; biotinylated scFv immobilised on Biacore SA chip at low density; analytes flowed 60 s; complexes pre-incubated 30 min at room temperature; 25 °C; HBS-P+ with 0.2% BSA; KD from equilibrium titration, 1:1 model; in Fig. 1D all proteins at 60 μM; conditions: both partners purified

Binder | binding result [1] | binding result [2] | binding result [3] | Kd [4]
B1 | no binding (tested: 1 μM) | no binding (tested: 1 μM) | binds | –
B2 | – | – | – | 15 nM
